Residue numbers refer to the chain shown, from its start. Names may count otherwise.
B1: OmpT protease variant OmpT D97F (protein)
chain: STETLSFTPDNINADISLGTLSGKTKERVYLAEEGGRKVSQLDWKFNNAAIIKGAINWDLMPQISIGAAGWTTLGSRGGNMVDQDWMDSSNPGTWTFESRHPDTQLNYANEFDLNIKGWLLNEPNYRLGLMAGYQESRYSFTARGGSYIYSSEEGFRDDIGSFPNGERAIGYKQRFKMPYIGLTGSYRYEDFELGGTFKYSGWVESSDNDEHYDPGKRITYRSKVKDQNYYSVAVNAGYYVTPNAKVYVEGAWNRVTNKKGNTSLYDHNNNTSDYSKNGAGIENYNFITTAGLKYTF
B2: OmpT protease variant OmpT D97T (protein)
chain: B1 chain with F97T
B3: OmpT protease variant OmpT D97C (protein)
chain: B1 chain with F97C
B4: OmpT protease variant OmpT D97A (protein)
chain: B1 chain with F97A
B5: OmpT protease variant OmpT D97E (protein)
chain: B1 chain with F97E
B6: OmpT protease variant OmpT D97N (protein)
chain: B1 chain with F97N
B7: OmpT protease variant OmpT D97S (protein)
chain: B1 chain with F97S
B8: OmpT protease variant OmpT D97Q (protein)
chain: B1 chain with F97Q
B9: OmpT protease variant OmpT D97V (protein)
chain: B1 chain with F97V
B10: OmpT protease variant OmpT D97I (protein)
chain: B1 chain with F97I

Target: fusion protein PRA
Sequence (chain, as listed by the source): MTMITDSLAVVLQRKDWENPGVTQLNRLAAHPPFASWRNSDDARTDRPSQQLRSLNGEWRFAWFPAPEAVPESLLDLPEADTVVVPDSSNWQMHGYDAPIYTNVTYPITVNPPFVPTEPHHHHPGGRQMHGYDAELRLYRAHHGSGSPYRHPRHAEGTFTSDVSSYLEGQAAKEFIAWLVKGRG

Protein	relative cleavage efficiency
B1	3.1%
B2	6.8%
B3	6.2%
B4	3.8%
B5	6.5%
B6	3.8%
B7	4%
B8	4%
B9	less than 3.0%
B10	less than 3.0%

Target: fusion protein PRC
Sequence (chain, as listed by the source): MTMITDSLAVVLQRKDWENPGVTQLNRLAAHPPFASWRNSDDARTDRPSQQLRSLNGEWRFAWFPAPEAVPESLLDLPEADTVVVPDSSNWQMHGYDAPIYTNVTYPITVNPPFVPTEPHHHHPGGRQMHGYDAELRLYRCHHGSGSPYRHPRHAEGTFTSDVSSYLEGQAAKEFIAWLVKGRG

Protein	relative cleavage efficiency
B1	< 3%
B2	4.6%
B3	4.8%
B4	< 3%
B5	6.9%
B6	< 3%
B7	3.1%
B8	4.1%
B9	less than 3.0%
B10	less than 3.0%

Target: fusion protein PRD
Sequence (chain, as listed by the source): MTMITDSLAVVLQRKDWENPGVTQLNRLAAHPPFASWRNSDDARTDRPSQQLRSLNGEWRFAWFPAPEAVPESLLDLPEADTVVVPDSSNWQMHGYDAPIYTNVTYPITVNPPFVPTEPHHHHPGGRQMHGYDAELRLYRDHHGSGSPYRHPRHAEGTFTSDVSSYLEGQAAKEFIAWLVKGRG

Protein	relative cleavage efficiency
B1	less than 3%
B2	less than 3%
B3	less than 3%
B4	less than 3%
B5	less than 3%
B6	less than 3%
B7	less than 3%
B8	less than 3%
B9	less than 3.0%
B10	less than 3.0%

Target: fusion protein PRE
Sequence (chain, as listed by the source): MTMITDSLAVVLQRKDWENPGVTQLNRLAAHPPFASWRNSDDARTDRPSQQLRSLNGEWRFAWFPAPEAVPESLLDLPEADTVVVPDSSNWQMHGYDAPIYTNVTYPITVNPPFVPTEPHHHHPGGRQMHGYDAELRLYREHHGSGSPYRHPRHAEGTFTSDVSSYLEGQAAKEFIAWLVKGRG

Protein	relative cleavage efficiency
B1	less than 3%
B2	less than 3%
B3	less than 3%
B4	less than 3%
B5	less than 3%
B6	less than 3%
B7	less than 3%
B8	less than 3%
B9	less than 3.0%
B10	less than 3.0%

Target: fusion protein PRF
Sequence (chain, as listed by the source): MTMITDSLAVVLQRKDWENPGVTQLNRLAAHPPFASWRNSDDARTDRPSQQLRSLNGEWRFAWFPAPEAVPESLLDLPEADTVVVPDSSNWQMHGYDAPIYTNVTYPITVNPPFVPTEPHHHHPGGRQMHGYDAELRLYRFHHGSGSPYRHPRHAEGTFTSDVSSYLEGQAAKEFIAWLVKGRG

Protein	relative cleavage efficiency
B1	< 3%
B2	3.7%
B3	4.6%
B4	< 3%
B5	3.4%
B6	< 3%
B7	< 3%
B8	< 3%
B9	less than 3.0%
B10	less than 3.0%

Target: fusion protein PRG
Sequence (chain, as listed by the source): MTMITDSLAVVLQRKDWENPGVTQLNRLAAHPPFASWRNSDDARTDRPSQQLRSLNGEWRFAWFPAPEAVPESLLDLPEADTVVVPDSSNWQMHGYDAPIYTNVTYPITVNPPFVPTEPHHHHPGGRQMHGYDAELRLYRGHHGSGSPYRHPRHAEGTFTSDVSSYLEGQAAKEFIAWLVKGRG

Protein	relative cleavage efficiency
B1	less than 3%
B2	less than 3%
B3	less than 3%
B4	less than 3%
B5	less than 3%
B6	less than 3%
B7	less than 3%
B8	less than 3%
B9	less than 3.0%
B10	less than 3.0%

Target: fusion protein PRH
Sequence (chain, as listed by the source): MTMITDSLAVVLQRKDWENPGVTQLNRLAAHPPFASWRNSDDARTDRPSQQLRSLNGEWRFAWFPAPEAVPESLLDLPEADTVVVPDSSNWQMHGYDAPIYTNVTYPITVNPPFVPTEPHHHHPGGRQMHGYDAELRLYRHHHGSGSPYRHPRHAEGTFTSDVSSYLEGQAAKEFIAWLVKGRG

Protein	relative cleavage efficiency
B1	less than 3%
B2	less than 3%
B3	less than 3%
B4	less than 3%
B5	less than 3%
B6	less than 3%
B7	less than 3%
B8	less than 3%
B9	less than 3.0%
B10	less than 3.0%

Target: fusion protein PRI
Sequence (chain, as listed by the source): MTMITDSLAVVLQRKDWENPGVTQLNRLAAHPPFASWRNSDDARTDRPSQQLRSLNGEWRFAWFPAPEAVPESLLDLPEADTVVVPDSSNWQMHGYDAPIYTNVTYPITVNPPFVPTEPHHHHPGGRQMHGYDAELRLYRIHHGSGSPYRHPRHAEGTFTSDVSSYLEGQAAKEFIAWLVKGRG

Protein	relative cleavage efficiency
B1	< 3%
B2	< 3%
B3	< 3%
B4	< 3%
B5	< 3%
B6	< 3%
B7	< 3%
B8	< 3%
B9	less than 3.0%
B10	less than 3.0%

Target: fusion protein PRK
Sequence (chain, as listed by the source): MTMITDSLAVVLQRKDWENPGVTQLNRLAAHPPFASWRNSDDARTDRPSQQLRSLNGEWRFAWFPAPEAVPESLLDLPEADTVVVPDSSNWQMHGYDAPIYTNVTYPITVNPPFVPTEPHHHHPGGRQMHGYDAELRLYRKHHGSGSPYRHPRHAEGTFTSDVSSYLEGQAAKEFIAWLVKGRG

Protein	relative cleavage efficiency
B1	< 3%
B2	< 3%
B3	3.9%
B4	< 3%
B5	39%
B6	< 3%
B7	< 3%
B8	< 3%
B9	less than 3.0%
B10	less than 3.0%

Target: fusion protein PRL
Sequence (chain, as listed by the source): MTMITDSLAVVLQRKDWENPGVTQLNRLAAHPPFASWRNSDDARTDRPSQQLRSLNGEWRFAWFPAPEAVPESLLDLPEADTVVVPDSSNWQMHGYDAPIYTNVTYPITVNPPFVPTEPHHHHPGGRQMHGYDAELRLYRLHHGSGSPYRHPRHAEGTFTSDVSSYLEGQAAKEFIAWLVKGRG

Protein	relative cleavage efficiency
B1	less than 3%
B2	less than 3%
B3	less than 3%
B4	less than 3%
B5	less than 3%
B6	less than 3%
B7	less than 3%
B8	less than 3%
B9	less than 3.0%
B10	less than 3.0%

Target: fusion protein PRM
Sequence (chain, as listed by the source): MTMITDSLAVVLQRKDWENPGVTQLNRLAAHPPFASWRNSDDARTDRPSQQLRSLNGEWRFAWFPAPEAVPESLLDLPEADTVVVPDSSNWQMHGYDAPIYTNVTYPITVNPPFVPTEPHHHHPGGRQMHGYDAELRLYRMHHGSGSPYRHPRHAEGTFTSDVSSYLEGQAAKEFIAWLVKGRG

Protein	relative cleavage efficiency
B1	< 3%
B2	< 3%
B3	< 3%
B4	< 3%
B5	< 3%
B6	< 3%
B7	< 3%
B8	< 3%
B9	less than 3.0%
B10	less than 3.0%

Target: fusion protein PRN
Sequence (chain, as listed by the source): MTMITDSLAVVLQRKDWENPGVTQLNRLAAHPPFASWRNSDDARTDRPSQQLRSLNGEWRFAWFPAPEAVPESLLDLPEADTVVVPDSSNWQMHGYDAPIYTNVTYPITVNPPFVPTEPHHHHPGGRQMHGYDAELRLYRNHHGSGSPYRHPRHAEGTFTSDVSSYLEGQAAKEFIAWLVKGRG

Protein	relative cleavage efficiency
B1	< 3%
B2	< 3%
B3	< 3%
B4	< 3%
B5	< 3%
B6	< 3%
B7	< 3%
B8	< 3%
B9	less than 3.0%
B10	less than 3.0%

Target: fusion protein PRP

Protein	relative cleavage efficiency
B1	less than 3%
B2	less than 3%
B3	less than 3%
B4	less than 3%
B5	less than 3%
B6	less than 3%
B7	less than 3%
B8	less than 3%
B9	less than 3.0%
B10	less than 3.0%

Target: fusion protein PRQ
Sequence (chain, as listed by the source): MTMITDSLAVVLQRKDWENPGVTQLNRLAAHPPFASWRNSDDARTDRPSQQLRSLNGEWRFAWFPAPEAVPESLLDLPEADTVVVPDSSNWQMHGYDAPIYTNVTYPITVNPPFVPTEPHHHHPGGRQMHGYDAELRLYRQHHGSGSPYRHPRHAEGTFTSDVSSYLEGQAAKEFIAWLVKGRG

Protein	relative cleavage efficiency
B1	less than 3%
B2	less than 3%
B3	less than 3%
B4	less than 3%
B5	less than 3%
B6	less than 3%
B7	less than 3%
B8	less than 3%
B9	less than 3.0%
B10	less than 3.0%

Target: fusion protein PRR
Sequence (chain, as listed by the source): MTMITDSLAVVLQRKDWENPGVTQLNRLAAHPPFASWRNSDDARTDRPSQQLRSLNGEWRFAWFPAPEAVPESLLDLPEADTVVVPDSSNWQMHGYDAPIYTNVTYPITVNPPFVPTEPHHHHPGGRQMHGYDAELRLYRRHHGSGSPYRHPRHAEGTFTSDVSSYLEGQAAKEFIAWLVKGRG

Protein	relative cleavage efficiency
B1	< 3%
B2	< 3%
B3	4%
B4	< 3%
B5	49%
B6	< 3%
B7	< 3%
B8	< 3%
B9	less than 3.0%
B10	less than 3.0%

Target: fusion protein PRS
Sequence (chain, as listed by the source): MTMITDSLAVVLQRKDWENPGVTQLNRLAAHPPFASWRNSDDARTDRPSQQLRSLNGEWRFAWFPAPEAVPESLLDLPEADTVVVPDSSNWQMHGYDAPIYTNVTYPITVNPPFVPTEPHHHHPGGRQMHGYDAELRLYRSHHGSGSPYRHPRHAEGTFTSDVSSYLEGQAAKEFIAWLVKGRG

Protein	relative cleavage efficiency
B1	< 3%
B2	7.4%
B3	5.6%
B4	< 3%
B5	7.2%
B6	4.1%
B7	< 3%
B8	4.4%
B9	less than 3.0%
B10	less than 3.0%

Target: fusion protein PRT
Sequence (chain, as listed by the source): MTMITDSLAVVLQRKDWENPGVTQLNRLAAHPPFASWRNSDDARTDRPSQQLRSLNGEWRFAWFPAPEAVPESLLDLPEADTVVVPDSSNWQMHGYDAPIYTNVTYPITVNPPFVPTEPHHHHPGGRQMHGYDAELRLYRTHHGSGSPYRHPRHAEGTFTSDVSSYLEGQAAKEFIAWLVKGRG

Protein	relative cleavage efficiency
B1	< 3%
B2	< 3%
B3	< 3%
B4	< 3%
B5	< 3%
B6	< 3%
B7	< 3%
B8	< 3%
B9	less than 3.0%
B10	less than 3.0%

Target: fusion protein PRW
Sequence (chain, as listed by the source): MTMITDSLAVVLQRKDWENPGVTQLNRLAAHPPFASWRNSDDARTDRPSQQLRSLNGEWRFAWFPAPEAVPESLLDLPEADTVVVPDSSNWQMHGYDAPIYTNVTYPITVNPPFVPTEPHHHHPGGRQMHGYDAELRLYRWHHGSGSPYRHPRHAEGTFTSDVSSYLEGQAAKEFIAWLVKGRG

Protein	relative cleavage efficiency
B1	less than 3%
B2	less than 3%
B3	less than 3%
B4	less than 3%
B5	less than 3%
B6	less than 3%
B7	less than 3%
B8	less than 3%
B9	less than 3.0%
B10	less than 3.0%

Target: fusion protein PRY
Sequence (chain, as listed by the source): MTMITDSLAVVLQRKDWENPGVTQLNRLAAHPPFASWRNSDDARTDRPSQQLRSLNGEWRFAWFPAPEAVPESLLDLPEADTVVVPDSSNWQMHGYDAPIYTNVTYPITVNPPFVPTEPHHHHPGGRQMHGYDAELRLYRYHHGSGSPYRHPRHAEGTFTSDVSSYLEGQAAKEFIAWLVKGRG

Protein	relative cleavage efficiency
B1	< 3%
B2	< 3%
B3	< 3%
B4	< 3%
B5	< 3%
B6	< 3%
B7	< 3%
B8	< 3%
B9	less than 3.0%
B10	less than 3.0%
